Substrate in the series: O=C(O)C(=O)O
The experiment in a line: purified protein. Conditions: 0.5 mM CoA, 5 mM ATP, 10 mM MgCl2, 2 mM DTT, 0.1 M Tris-HCl or NaPO4 pH 8.0, sodium oxalate as substrate.

The values below come from publication PMC7700444.

B1: GsAAE3 (Glycine max) (protein)
chain: MKDTMETPTTLTTLLRHVAAKFPSRRAISVAAKFDLTHSRLHRLVESAAAQLVSAGVKPGDVVALTFPNTIEFVVMFLAVIRARATAAPLNSAYTAEEFEFYLSDSESKLLLTSPEGNKPAQAAASKLSIPHATASITKAENEEAELSLSLLNHPELNSVNSVESLVNDPDDVALFLHTSGTTSRPKGVPLTQYNLLSSVKNIDSVYRLTESDSTVIVLPLFHVHGLIAGLLSSLGAGAAVALPAAGRFSASAFWKDMIKYSATWYTAVPTIHQIILDRHSSNPEPVYPRLRFIRSCSASLAPVILGKLEEAFGAPVLEAYAMTEASHLMASNPLPQDGAHKSGSVGKPVGQEMGILDESGRVQEAGISGEVCIRGSNVTKGYKNNVAANTASFLFDWFHTGDIGYFDSDGYLHLVGRIKELINRGGEKISPIEVDAVLLSHPEIAQAVAFGVPDAKYGEEIYCAVIPREGSNVDEAEVLRFSKTNLASFKVPKKVFITDSLPKTATGKILRRLVAEHFVSQI
Regarding B1, the Km (usually the substrate concentration at which the rate is half of its maximum) came out at 105.10 ± 12.30 µM.
